Our source for the Kd values is patent publication US20150210738.

The test system of data set [1] is Protein VI (Human adenovirus 2). Briefly: FP. Particulars: 20 mM Tris pH 8.0, 0.025% DDM, 1 mM MgCl2, 21 C.
In data set [2] the target is pVI (precursor to protein VI) (Human adenovirus 2) (UniProt P03274). Briefly: FP. Particulars: 20 mM Tris pH 8.0, 0.025% DDM, 0.1 mM DTT, 1 mM MgCl2, 21 C; 4:1 stoichiometry.

By Kd is commonly meant a measure of binding affinity in units of concentration. Read a low Kd as tighter binding.

Chain of pVI (precursor to protein VI) (Human adenovirus 2) (P03274 whole entry): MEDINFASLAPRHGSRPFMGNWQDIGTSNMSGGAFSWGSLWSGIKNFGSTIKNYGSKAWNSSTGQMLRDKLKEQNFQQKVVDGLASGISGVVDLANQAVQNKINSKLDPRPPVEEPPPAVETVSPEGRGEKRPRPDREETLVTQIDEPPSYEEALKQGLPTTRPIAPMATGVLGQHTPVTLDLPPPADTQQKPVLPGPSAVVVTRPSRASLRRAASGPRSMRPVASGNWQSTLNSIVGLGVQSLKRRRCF

As for 33-mer dsDNA, the Kd was 241 nM in data set [1] and 35 nM in data set [2].
